Kd and EC50 data for nine molecules are collected here from patent US20220195063A1 (BYONDIS B V, published 2022).

Positions count from the first letter of the chain named.

Test [1] concerns the target human SIRPαBIT (huSIRPαBIT), protein antigen (human) (UniProt P78324). Nature of the test: SPR, biotinylated antigen captured, 25 C.
The target of test [2] is T1, human SIRPγ (huSIRPγ) (human, UniProt Q9P1W8 29-360, limits assumed, biotinylated in the SPR assay).
T1 construct: Coated on the plate in ELISA, biotinylated and captured in SPR
T1 sequence (Q9P1W8 29-360 limits assumed): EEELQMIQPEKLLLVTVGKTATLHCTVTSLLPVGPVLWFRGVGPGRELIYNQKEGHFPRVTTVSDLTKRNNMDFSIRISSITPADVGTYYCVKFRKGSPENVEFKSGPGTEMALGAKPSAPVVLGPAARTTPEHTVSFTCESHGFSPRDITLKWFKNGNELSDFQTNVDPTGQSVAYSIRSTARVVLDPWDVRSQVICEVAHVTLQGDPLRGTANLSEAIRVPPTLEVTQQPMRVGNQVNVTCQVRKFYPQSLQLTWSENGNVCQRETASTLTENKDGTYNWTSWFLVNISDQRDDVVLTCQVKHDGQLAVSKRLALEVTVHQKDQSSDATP
Nature of the test: SPR, biotinylated antigen captured, 25 C. The protocol:
(§1) Surface Plasmon Resonance (SPR) assay: Affinity analysis was performed by single cycle kinetics analysis on a Surface Plasmon Resonance apparatus (Biacore T200 system, GE Life Sciences) at 25° C. Biotinylated SIRP antigens were captured on the surface of a chip suitable for biotinylated molecules (Sensor Chip CAP, GE Life Sciences) by injecting 5 μg/ml of the SIRP antigen in running buffer (10 mM HEPES buffer at pH 7.4 with 150 mM NaCl, 3 mM EDTA and 0.005% v/v polyoxyethylene (20) sorbitan monolaurate (Surfactant P20) for 60 sec at 10 μL/min after injection of a streptavidin conjugate (20× diluted biotin CAPture reagent, GE Life Sciences) for 60 sec at 10 μl/min. Baseline stabilization was set at 1 min after which five increasing concentrations of an anti-SIRP antibody in running buffer (10 mM HEPES buffer at pH 7.4 with 150 mM NaCl, 3 mM EDTA and 0.005% v/v polyoxyethylene (20) sorbitan monolaurate) were injected. For each step an association time of 150 sec was used, followed by a dissociation time of 1200 sec at the highest concentration only, all at a flow rate of 30 μL/min. Regeneration was performed with 6 M guanidine-HCl, 0.25 M NaOH solution (60 sec with flow rate of 30 μL/min). Double blank subtraction was performed on the observed sensorgrams using a non anti-SIRP (blank) immobilized reference flow channel and running buffer injection. Sensorgrams were fitted with a 1:1 Langmuir model for all tested anti-SIRP antibodies. The kinetic parameters (kₐ, kd and KD) were calculated using the Biacore T200 evaluation software (v3.1).

Test [3] addresses T2, human SIRPα1 (huSIRPα1), protein antigen (human, UniProt P78324 31-370, limits assumed, biotinylated in the SPR assay).
T2 construct: Coated on the plate in ELISA, biotinylated and captured in SPR; also called v2
Description: SPR, biotinylated antigen captured, 25 C. As to the method: as §1

Test [4] addresses human SIRPαBIT (huSIRPαBIT), protein antigen (human) (UniProt P78324). Description: ELISA, antigen coated.
In test [5] the target is T1, human SIRPγ (huSIRPγ). Description: ELISA, antigen coated. As to the method: (§2) ELISA assay: Solutions of huSIRPα₁, huSIRPαBIT, huSIRPβ₁ᵥ₁, huSIRPβ₁ᵥ₂, huSIRPγ and cySIRPα in phosphate buffered saline (PBS) were each added to a multiple well black polystyrene plate for ELISA and allowed to adhere for 1 h at RT. Unbound protein was removed with three washing steps using standard washing buffer. Subsequently, blocking buffer was added to the wells. After 1 h incubation at RT, the wells were washed three times with standard washing buffer. The antibodies in buffer at various concentrations were added to the wells and incubated at RT for 1 h. Unbound antibodies were removed with three washing steps using standard washing buffer. Goat anti human IgG (Fab′)₂:horse radish peroxidase (HRP) in buffer was added to the wells and incubated at RT for 1 h. 3,3′,5,5′-Tetramethylbenzidine (TMB) was added and after sufficient colour development HCl was added. Absorbance was read at 450 nm/620 nm.

Test [6] has as its target T2, human SIRPα1 (huSIRPα1), protein antigen. Nature of the test: ELISA, antigen coated. The protocol: as §2
Test [7] deals with T3, cynomolgus SIRPα (cySIRPα), protein antigen (cynomolgus monkey, UniProt A0A2K5VYQ9 31-369).
T3 construct: Coated on the plate in ELISA
T3 sequence: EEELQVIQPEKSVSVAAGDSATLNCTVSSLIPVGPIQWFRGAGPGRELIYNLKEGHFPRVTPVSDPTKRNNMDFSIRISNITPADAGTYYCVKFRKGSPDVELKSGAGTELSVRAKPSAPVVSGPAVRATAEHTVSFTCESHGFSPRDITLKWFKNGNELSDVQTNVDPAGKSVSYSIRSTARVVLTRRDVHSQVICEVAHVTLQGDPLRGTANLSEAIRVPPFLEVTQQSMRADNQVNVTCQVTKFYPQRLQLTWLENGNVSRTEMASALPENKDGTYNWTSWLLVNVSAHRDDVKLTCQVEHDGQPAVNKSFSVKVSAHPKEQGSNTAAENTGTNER
Nature of the test: ELISA, antigen coated. The protocol: as §2

Test [8] deals with T4, human SIRPβ1v2 (huSIRPβ1v2) (human, UniProt Q5TFQ8 30-371).
T4 construct: Coated on the plate in ELISA; Only the Ensembl protein number is printed; also called huSIRPß1v2
T4 sequence (Q5TFQ8 30-371 limits assumed): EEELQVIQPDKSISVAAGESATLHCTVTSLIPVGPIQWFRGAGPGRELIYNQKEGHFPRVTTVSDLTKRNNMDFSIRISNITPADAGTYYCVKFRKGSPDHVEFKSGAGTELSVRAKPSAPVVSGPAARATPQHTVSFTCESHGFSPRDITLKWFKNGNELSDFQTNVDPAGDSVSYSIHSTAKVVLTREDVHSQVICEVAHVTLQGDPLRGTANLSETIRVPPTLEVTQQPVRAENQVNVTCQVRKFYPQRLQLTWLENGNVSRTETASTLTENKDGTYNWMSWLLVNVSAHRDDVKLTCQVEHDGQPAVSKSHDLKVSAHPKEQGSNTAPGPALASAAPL
Description: ELISA, antigen coated. The protocol: as §2

For test [9], the target named is human SIRPβ1v1 (huSIRPβ1v1) (human) (UniProt O00241). Description: ELISA, antigen coated.
Chain of human SIRPβ1v1 (huSIRPβ1v1) (human) (O00241 30-371): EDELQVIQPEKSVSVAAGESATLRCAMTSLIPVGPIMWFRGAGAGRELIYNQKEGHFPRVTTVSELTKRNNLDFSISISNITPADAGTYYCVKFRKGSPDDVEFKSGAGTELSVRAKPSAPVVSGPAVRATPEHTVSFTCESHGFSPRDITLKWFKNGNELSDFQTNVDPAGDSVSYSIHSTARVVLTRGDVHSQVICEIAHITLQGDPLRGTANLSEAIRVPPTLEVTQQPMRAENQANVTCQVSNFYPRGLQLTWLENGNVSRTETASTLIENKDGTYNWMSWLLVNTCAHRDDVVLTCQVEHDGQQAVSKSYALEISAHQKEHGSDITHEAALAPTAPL
Test [10] addresses human SIRPαBIT expressed on cells (human) (UniProt P78324). Description: flow cytometry, U937 cells.
In test [11] the target is T5, cynomolgus SIRPα expressed on cells (cynomolgus monkey, UniProt A0A2K5VYQ9 31-507).
T5 construct: whole, on cells; also called ExpiCHO-S (cySIRPα)
T5 sequence: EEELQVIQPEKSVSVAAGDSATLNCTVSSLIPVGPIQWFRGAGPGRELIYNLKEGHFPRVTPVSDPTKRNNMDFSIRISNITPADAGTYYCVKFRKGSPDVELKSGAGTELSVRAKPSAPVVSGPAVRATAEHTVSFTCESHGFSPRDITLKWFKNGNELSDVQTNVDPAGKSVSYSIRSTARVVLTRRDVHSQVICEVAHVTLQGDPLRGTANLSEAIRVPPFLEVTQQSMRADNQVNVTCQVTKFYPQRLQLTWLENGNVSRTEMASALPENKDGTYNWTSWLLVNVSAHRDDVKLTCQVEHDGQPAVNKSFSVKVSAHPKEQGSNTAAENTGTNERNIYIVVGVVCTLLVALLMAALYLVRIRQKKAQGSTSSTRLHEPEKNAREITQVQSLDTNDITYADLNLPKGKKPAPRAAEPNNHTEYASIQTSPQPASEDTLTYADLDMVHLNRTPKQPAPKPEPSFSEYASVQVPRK
Description: flow cytometry, ExpiCHO-S cells. An excerpt: Flow Cytometry: U937 cells endogenously expressing human SIRPαBIT antigen and cells derived from a non-engineered subclone that has been screened and isolated from CHO-S Chinese hamster ovary cells (ExpiCHO-S) cells expressing human SIRPα₁, SIRPαBIT or cySIRPα antigen (100,000 cells/well in a 96-well plate) were washed three times with ice-cold FACS buffer (1×PBS (LONZA) containing 0.2% v/w BSA (Sigma-Aldrich, St. Louis, Mo.) and 0.02% v/w NaN₃ (Sigma-Aldrich), followed by the addition of a concentration range of each primary mAb (50 μL/well) diluted in ice-cold FACS buffer. After an incubation time of 30 min at 4° C., the cells were washed three times with ice-cold FACS buffer and 50 μL/well secondary mAb (AffiniPure F(ab′)₂ fragment Goat-anti-human IgG-APC, 1:6,000 dilution, Jackson Immuno Research) was added. After 30 min at 4° C., cells were washed twice and resuspended in 150 μL FACS buffer. Fluorescence intensities were determined by flow cytometry (BD FACSVerse, Franklin Lakes, N.J.) and indicated as the median fluorescence intensity (MFI-Median) for U937 cells and ExpiCHO-S cells. Curves were fitted by nonlinear regression using the sigmoidal dose-response equation with variable slope (four parameters) in GraphPad Prism (version 7.02 for Windows, GraphPad, San Diego, Calif.). EC₅₀ values were calculated as the concentration in μg/mL that gives a response half way between bottom and top of the curve, when using a 4-parameter logistic fit.

The target in test [12] is human SIRPαBIT expressed on cells (human) (UniProt P78324). Description: flow cytometry, ExpiCHO-S cells.
Chain of human SIRPαBIT expressed on cells (human) (P78324 31-504): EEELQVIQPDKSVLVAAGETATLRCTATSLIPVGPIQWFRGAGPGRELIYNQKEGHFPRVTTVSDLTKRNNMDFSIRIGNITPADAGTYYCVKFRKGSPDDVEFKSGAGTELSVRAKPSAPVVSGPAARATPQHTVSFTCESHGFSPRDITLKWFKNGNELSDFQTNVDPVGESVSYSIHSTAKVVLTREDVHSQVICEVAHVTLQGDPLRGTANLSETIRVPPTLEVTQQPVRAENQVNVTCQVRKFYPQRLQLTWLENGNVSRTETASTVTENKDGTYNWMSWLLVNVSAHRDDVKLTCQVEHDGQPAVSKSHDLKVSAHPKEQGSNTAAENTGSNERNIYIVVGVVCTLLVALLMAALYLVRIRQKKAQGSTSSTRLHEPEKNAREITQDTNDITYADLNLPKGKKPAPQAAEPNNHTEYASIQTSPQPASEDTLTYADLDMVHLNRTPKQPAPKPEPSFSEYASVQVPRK

T2 sequence (P78324 other isoform, or with tags, fused parts or gaps limits assumed): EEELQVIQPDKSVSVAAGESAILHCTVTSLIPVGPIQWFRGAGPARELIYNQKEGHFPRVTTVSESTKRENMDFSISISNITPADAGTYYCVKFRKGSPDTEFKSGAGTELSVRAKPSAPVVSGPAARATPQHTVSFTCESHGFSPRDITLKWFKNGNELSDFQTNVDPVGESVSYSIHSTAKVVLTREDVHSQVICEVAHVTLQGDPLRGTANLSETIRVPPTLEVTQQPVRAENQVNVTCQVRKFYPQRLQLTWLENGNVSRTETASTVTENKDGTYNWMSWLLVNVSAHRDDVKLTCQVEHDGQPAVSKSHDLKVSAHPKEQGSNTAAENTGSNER
Chain of human SIRPαBIT (huSIRPαBIT), protein antigen (human) (P78324 31-370): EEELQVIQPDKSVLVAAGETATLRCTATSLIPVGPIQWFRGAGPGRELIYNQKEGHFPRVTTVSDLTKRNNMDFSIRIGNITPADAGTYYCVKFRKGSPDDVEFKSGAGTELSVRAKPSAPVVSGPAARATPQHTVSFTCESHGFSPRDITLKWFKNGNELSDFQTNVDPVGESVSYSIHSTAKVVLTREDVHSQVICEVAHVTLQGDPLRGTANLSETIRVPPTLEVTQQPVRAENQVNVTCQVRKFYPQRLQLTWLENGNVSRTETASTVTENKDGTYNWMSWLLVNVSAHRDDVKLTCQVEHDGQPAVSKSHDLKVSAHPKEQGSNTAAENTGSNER

Consider SE5A5 (antibody), for which the Kd amounted to 2.6 nM in test [1], 49 nM with human SIRPγ (huSIRPγ) [2] and 2.2 nM in test [3].

B1: anti-SIRPα antibody 1 (antibody, human IgG1, kappa, L234A L235A, V domains shown)
VH: QSVEESGGRLVTPGTPLTLTCTVSGIDLSSYAMSWVRQAPGKGLEWIGIISSGGITYYASWAKGRFTISKTSTTVDLKIPSPTTEDTATYFCARSLWAASNYYMALWGPGTLVTVSS
VL: AIKMTQTPASVSAAVGGTVSINCQASEDIESYLAWYQQKPGQPPKLLIYRASTLASGVSSRFKGSGSGTQFTLTISDLESADAATYYCLGDYYSSSGDTGAFGGGTEVVVKR
notes: Rabbit variable regions on human IgG1 LALA / kappa
On to B1, for which the EC50 in test [4] was found to be 0.021 µg/mL; with human SIRPγ (huSIRPγ) [5] it was 0.043 µg/mL; in [6] it was 0.039 µg/mL; in [7], 0.305 µg/mL; in test [8] it was 0.058 µg/mL.

B2: 29AM4-5huIgG1LALA (antibody, V domains shown)
VH: EVQLVESGGGLVQPGGSLRLSCAASGFNISYYFIHWVRQAPGKGLEWVASVYSSFGYTYYADSVKGRFTISADTSKNTAYLQMNSLRAEDTAVYYCARFTFPGLFDGFFGAYLGSLDYWGQGTLVTVSS
VL: DIQMTQSPSSLSASVGDRVTITCRASQSVSSAVAWYQQKPGKAPKLLIYSASSLYSGVPSRFSGSRSGTDFTLTISSLQPEDFATYYCQQAVNWVGALVTFGQGTKVEIKR
notes: HAVT20 leader left out
On to B2, for which the EC50 is 0.009 µg/mL in test [4]; 0.013 µg/mL in [9]; 0.034 µg/mL with human SIRPγ (huSIRPγ) [5]; 0.009 µg/mL in test [6]; 0.011 µg/mL in [7]; 0.017 µg/mL in [8]. In test [10], this molecule yielded a concentration giving a half-maximal response (EC50) of 0.25 µg/mL.

B3: anti-SIRPα antibody 9 (antibody, human IgG1, kappa, L234A L235A, V domains shown)
VH: QSMEESGGRLVTPGTPLTLTCTASGFSLSNYGVSWVRQAPGKGLEWIGIIYGGSDITAYASWAKGRFTISKTSTTVDLTITSPTTEDTATYFCAKSYTNGMDYYNIWGPGTLVTVSL
VL: AFDLTQTPSSVEAPVGGTVIIKCQASQSISSYLAWYQQKPGQPPKLLIYSASTLASGVSSRFKGSGSETQFPLTISDLESADAATYYCQSYYGSRSNVFGGGTEVVVKR
notes: as for B1
Take B3: the EC50 in test [4] was 0.026 µg/mL; in test [9] it was above 100 µg/mL; with human SIRPγ (huSIRPγ) [5], above 100 µg/mL; in test [6], 0.023 µg/mL; in test [7], 0.03 µg/mL; in [8], 0.047 µg/mL. For the same molecule, the EC50 in [10] was 0.11 µg/mL.

B4: anti-SIRPα antibody 7 (antibody, human IgG1, kappa, L234A L235A, V domains shown)
VH: RSVEESGGRLVTPGTPLTLTCTVSGFSLSSHGISWVRQAPGKGLEYIGTIGTGVITYFASWAKGRFTGSKTSTTVDLKITSPTTEDTATYFCARGSAWNDPFDPWGPGTLVTVSS
VL: ALVMTQTPASVSAAVGGTVTTKCQASQSVYGNNDLAWYQHKPGQPPKLLIYLASTLATGVPSRFSGSGSGTQFTLTITGVQSDDAATYYCLGGGDDEADNVFGGGTEVVVKR
notes: Chimeric: rabbit variable regions on human IgG1 LALA / kappa; also called chimeric antibody 7
For B4, the EC50 in test [11] is 0.07 µg/mL; in [4] it was 0.02 µg/mL; in [9], 0.014 µg/mL; with human SIRPγ (huSIRPγ) [5], above 100 µg/mL; in [7], 0.335 µg/mL; in test [8], above 100 µg/mL. Further, the 50% effective concentration (EC50) in [12] was 0.21 µg/mL; in test [10], 0.17 µg/mL. This molecule had a Kd in test [1] below 0.01 nM.

B5: anti-SIRPα antibody 15 humanized (antibody, human IgG1, kappa, L234A L235A, V domains shown)
VH: B4 VH
VL: ELVMTQSPSSLSASVGDRVTITCQASQSVYGNNDLAWYQQKPGEAPKLLIYLASTLATGVPSRFSGSGSGTDFTLTISGLQSEDFATYYCLGGGDDEADNVFGQGTKVEIKR
In turn, B5 showed an EC50 in test [10] of 0.16 µg/mL.

B6: anti-SIRPα antibody 16 humanized (antibody, human IgG1, kappa, L234A L235A, V domains shown)
VH: B4 VH
VL: B5 VL with E1D, L2I, V3E, L11V, I21L, E44Q, G79S, S82P, Q104G
In turn, B6 registered an EC50 in test [10] of 0.23 µg/mL.

B7: anti-SIRPα antibody 6 (antibody, human IgG1, kappa, L234A L235A, V domains shown)
VH: QSVEESGGRLVTPGTPLTLTCTVSGIDLSSYTMTWVRQAPGKGLEWIGIIYAGGSTAYASWAKGRFTISKTSTTVDLKITSPTTEDTATYFCARSSSDGYDYFNIWGPGTLVTVSL
VL: GVVMTQTPSSVSAAVGGTVTINCQASQSIGSWLAWYQQKPGQPPKLLIYQASKLASGVPSRFSGRGSGTHFTLTISDVQSDDAATYYCQQTVTAASNVDNAFGGGTEVVVKR
notes: as for B1
Turning to B7, the EC50 in [4] was 0.02 µg/mL; in [9], above 100 µg/mL; in the test with human SIRPγ (huSIRPγ) [5], above 100 µg/mL; in test [6], 0.021 µg/mL; in [7], 0.033 µg/mL; in test [8] it was 0.024 µg/mL.

B8: KWAR23 mouse IgG2a (antibody, V domains shown)
VH: EVQLQQSGAELVKPGASVKLSCTASGFNIKDYYIHWVQQRTEQGLEWIGRIDPEDGETKYAPKFQDKATITADTSSNTAYLHLSSLTSEDTAVYYCARWGAYWGQGTLVTVSS
VL: QIVLTQSPAIMSASPGEKVTLTCSASSSVSSSYLYWYQQKPGSSPKLWIYSTSNLASGVPARFSGSGSGTSYSLTISSMEAEDAASYFCHQWSSYPRTFGAGTKLELK
For the molecule B8, the Kd (in test [1]; in the test with human SIRPγ (huSIRPγ) [2]; in test [3]) was below 0.01 nM each time.
